Experimental data reported in article PMC12418378, “Intrinsically disordered region of Clr4/Suv39 regulates its enzymatic activity and ensures heterochromatin spreading” (Nucleic Acids Research, 2025).

B1: GST-Clr4-N3 (domain or fragment, S. pombe, UniProt O60016 1-126, looked up)
chain: MSPKQEEYEVERIVDEKLDRNGAVKLYRIRWLNYSSRSDTWEPPENLSGCSAVLAEWKRRKRRLKGSNSDSDSPHHASNPHPNSRQKHQHQTSKSVPRSQRFSRELNVKKENKKVFSSQTTKRQSR
notes: Clr4, S. pombe, residues 1-126; source: E. coli BL21 (DE3), purified (Glutathione Sepharose 4B, anion exchange SOURCE 15Q)
B2: GST-fused Clr4 N-terminus (GST-Clr4-N, amino acids 1-191) (domain or fragment, S. pombe, UniProt O60016 1-191, looked up)
chain: MSPKQEEYEVERIVDEKLDRNGAVKLYRIRWLNYSSRSDTWEPPENLSGCSAVLAEWKRRKRRLKGSNSDSDSPHHASNPHPNSRQKHQHQTSKSVPRSQRFSRELNVKKENKKVFSSQTTKRQSRKQSTALTTNDTSIILDDSLHTNSKKLGKTRNEVKEESQKRELVSNSIKEATSPKTSSILTKPRNP
notes: Clr4, S. pombe, N-terminus comprising the CD and IDR, amino acids 1-191; cloned into pGEX6P-3; also called wild-type GST-Clr4-N; GST-Clr4-N2 (label worked out); source: E. coli BL21 (DE3), purified (Glutathione Sepharose 4B, anion exchange SOURCE 15Q)

Columns and labels:
Assay in all cases: pull-down; GST-fused Clr4 (0.2 nmol) on Glutathione Magnetic Agarose Beads, 0.2 nmol MBP-fused Clr4 in 200 μl of 10 mM Tris-HCl pH 7.5, 150 mM NaCl, 0.1 mM EDTA, 0.1% Triton X-100, 4°C, 2 h; SDS-PAGE and CBB staining; also at 0 mM NaCl and with pericentromeric RNA added
Conditions in all cases: both partners purified
[1] = target: T1, MBP-fused catalytic domain of Clr4 (MBP-Clr4-C, amino acids 192-490) (S. pombe, UniProt O60016 192-490)
T1 construct: Clr4, S. pombe, C-terminal catalytic domain, amino acids 192-490; cloned into pMALc2; source: E. coli BL21 (DE3), purified (Amylose Resin, dialysed)
T1 sequence (O60016 192-490): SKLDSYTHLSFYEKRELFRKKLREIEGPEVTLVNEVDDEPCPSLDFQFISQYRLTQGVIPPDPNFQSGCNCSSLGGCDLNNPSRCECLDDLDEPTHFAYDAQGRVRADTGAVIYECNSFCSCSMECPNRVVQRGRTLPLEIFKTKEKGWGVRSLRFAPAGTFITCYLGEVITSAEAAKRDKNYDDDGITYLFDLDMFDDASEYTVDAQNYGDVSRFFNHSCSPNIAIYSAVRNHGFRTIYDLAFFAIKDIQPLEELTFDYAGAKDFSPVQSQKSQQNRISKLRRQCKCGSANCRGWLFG

[2] = target: T2, MBP-Clr4-C 472–475E (S. pombe, UniProt O60016 192-490, 472–475E)
T2 construct: source: E. coli BL21 (DE3), purified (Amylose Resin, dialysed)
T2 sequence (O60016 other isoform, or with tags, fused parts or gaps 472–475E | 472–475E): as the sequence (O60016 192-490) above, with K281E, L282E, R283E, R284E counted along it

[3] = target: T3, MBP-Clr4-C 472–475A (S. pombe, UniProt O60016 192-490, 472–475A)
T3 construct: source: E. coli BL21 (DE3), purified (Amylose Resin, dialysed)
T3 sequence (O60016 other isoform, or with tags, fused parts or gaps 472–475A | 472–475A): as the sequence (O60016 192-490) above, with K281A, L282A, R283A, R284A counted along it

binding result [1] | binding result [2] | binding result [3] | Binder
binds |  |  | B1
binds | binds | binds | B2
